Assay results: the array DNA melting data of Ke et al.

assay: melting temperature; melt of duplexes; conditions: sodium 0.0675 M; strand 1 µM

| Substance | Tm [°C] |
| --- | --- |
| CGACGTGCTAGATGTGCTG+CAGCACATTGTGCACGTCG ((((((((...((((((((+))))))))...)))))))) | 48.5 |
| CGACGTGCTAGATGTGCTG+CAGCACATTGCGCACGTCG ((((((((...((((((((+))))))))...)))))))) | 49.2 |
| CGACGTGCCTTATGTGCTG+CAGCACATCAAGCACGTCG ((((((((.(.((((((((+)))))))).).)))))))) | 48.8 |
| CGACGTGCGCGATGTGCTG+CAGCACATAATGCACGTCG ((((((((...((((((((+))))))))...)))))))) | 50 |
| CGACGTGCTATATGTGCTG+CAGCACATTGAGCACGTCG (((((((((..((((((((+))))))))..))))))))) | 52.9 |
| CGACGTGCTTCATGTGCTG+CAGCACATCATGCACGTCG ((((((((.(.((((((((+)))))))).).)))))))) | 49.2 |
| CGACGTGCCCCATGTGCTG+CAGCACATGAGGCACGTCG (((((((((.(((((((((+))))))))).))))))))) | 59.6 |
| CGACGTGCCCTATGTGCTG+CAGCACATCTGGCACGTCG (((((((((..((((((((+))))))))..))))))))) | 53.2 |
| CGACGTGCGAAATGTGCTG+CAGCACATCGCGCACGTCG (((((((((..((((((((+))))))))..))))))))) | 53.8 |
| CGACGTGCTACATGTGCTG+CAGCACATTCGGCACGTCG ((((((((...((((((((+))))))))...)))))))) | 49.1 |
| CGACGTGCCCTATGTGCTG+CAGCACATAAGGCACGTCG (((((((((.(((((((((+))))))))).))))))))) | 55.6 |
| CGACGTGCCAGATGTGCTG+CAGCACATGAAGCACGTCG ((((((((...((((((((+))))))))...)))))))) | 50.5 |
| CGACGTGCGTTATGTGCTG+CAGCACATGGAGCACGTCG ((((((((...((((((((+))))))))...)))))))) | 54.8 |
| CGACGTGCTCCATGTGCTG+CAGCACATAAGGCACGTCG ((((((((...((((((((+))))))))...)))))))) | 49 |
| CGACGTGCTCCATGTGCTG+CAGCACATCTCGCACGTCG ((((((((...((((((((+))))))))...)))))))) | 46.2 |
| CGACGTGCACAATGTGCTG+CAGCACATGACGCACGTCG ((((((((...((((((((+))))))))...)))))))) | 48.2 |
| CGACGTGCACGATGTGCTG+CAGCACATAGGGCACGTCG ((((((((.(.((((((((+)))))))).).)))))))) | 54.9 |
| CGACGTGCAATATGTGCTG+CAGCACATATGGCACGTCG ((((((((.((((((((((+)))))))))).)))))))) | 55.6 |
| CGACGTGCATAATGTGCTG+CAGCACATCGTGCACGTCG (((((((((..((((((((+))))))))..))))))))) | 47.6 |
| CGACGTGCGAAATGTGCTG+CAGCACATACGGCACGTCG ((((((((...((((((((+))))))))...)))))))) | 49 |
| CGACGTGCTACATGTGCTG+CAGCACATCCGGCACGTCG ((((((((...((((((((+))))))))...)))))))) | 48.7 |
| CGACGTGCAGTATGTGCTG+CAGCACATTTGGCACGTCG ((((((((...((((((((+))))))))...)))))))) | 49.2 |
| CGACGTGCGTTATGTGCTG+CAGCACATAGGGCACGTCG ((((((((..(((((((((+)))))))))..)))))))) | 52.5 |
| CGACGTGCGAAATGTGCTG+CAGCACATACAGCACGTCG ((((((((...((((((((+))))))))...)))))))) | 53.3 |
| CGACGTGCACGATGTGCTG+CAGCACATCAGGCACGTCG ((((((((..(((((((((+)))))))))..)))))))) | 53.4 |
| CGACGTGCTACATGTGCTG+CAGCACATCTCGCACGTCG ((((((((.(.((((((((+)))))))).).)))))))) | 47.2 |

| Substance | Tm [°C] |
| --- | --- |
| CGACGTGCTATATGTGCTG+CAGCACATGATGCACGTCG ((((((((...((((((((+))))))))...)))))))) | 51.9 |
| CGACGTGCTCTATGTGCTG+CAGCACATTCTGCACGTCG ((((((((...((((((((+))))))))...)))))))) | 47.8 |
| CGACGTGCTCGATGTGCTG+CAGCACATCGAGCACGTCG (((((((((((((((((((+))))))))))))))))))) | 66.6 |
| CGACGTGCGTGATGTGCTG+CAGCACATAATGCACGTCG ((((((((.(.((((((((+)))))))).).)))))))) | 52.9 |
| CGACGTGCCGCATGTGCTG+CAGCACATTCTGCACGTCG ((((((((.(.((((((((+)))))))).).)))))))) | 48.8 |
| CGACGTGCTTGATGTGCTG+CAGCACATAGAGCACGTCG (((((((((..((((((((+))))))))..))))))))) | 54.2 |
| CGACGTGCGGTATGTGCTG+CAGCACATCACGCACGTCG (((((((((..((((((((+))))))))..))))))))) | 56.7 |
| CGACGTGCCGTATGTGCTG+CAGCACATCTGGCACGTCG (((((((((..((((((((+))))))))..))))))))) | 55.3 |
| CGACGTGCCTCATGTGCTG+CAGCACATGGCGCACGTCG ((((((((..(((((((((+)))))))))..)))))))) | 52.5 |
| CGACGTGCTGAATGTGCTG+CAGCACATAGCGCACGTCG ((((((((...((((((((+))))))))...)))))))) | 48.3 |
| CGACGTGCCGCATGTGCTG+CAGCACATTAGGCACGTCG (((((((((..((((((((+))))))))..))))))))) | 55.3 |
| CGACGTGCGTAATGTGCTG+CAGCACATAGCGCACGTCG (((((((((..((((((((+))))))))..))))))))) | 56.1 |
| CGACGTGCGCGATGTGCTG+CAGCACATTATGCACGTCG ((((((((...((((((((+))))))))...)))))))) | 50 |
| CGACGTGCCTTATGTGCTG+CAGCACATAAAGCACGTCG ((((((((.((((((((((+)))))))))).)))))))) | 53.4 |
| CGACGTGCGGCATGTGCTG+CAGCACATACGGCACGTCG ((((((((.(.((((((((+)))))))).).)))))))) | 51.5 |
| CGACGTGCGCTATGTGCTG+CAGCACATACGGCACGTCG ((((((((..(((((((((+)))))))))..)))))))) | 50.6 |
| CGACGTGCCGCATGTGCTG+CAGCACATAATGCACGTCG ((((((((...((((((((+))))))))...)))))))) | 47.9 |
| CGACGTGCTGCATGTGCTG+CAGCACATTCCGCACGTCG ((((((((.(.((((((((+)))))))).).)))))))) | 49.3 |
| CGACGTGCGAGATGTGCTG+CAGCACATGCGGCACGTCG ((((((((...((((((((+))))))))...)))))))) | 50.4 |
| CGACGTGCGCTATGTGCTG+CAGCACATGTAGCACGTCG ((((((((...((((((((+))))))))...)))))))) | 52.5 |
| CGACGTGCGCAATGTGCTG+CAGCACATCTGGCACGTCG ((((((((...((((((((+))))))))...)))))))) | 49.8 |
| CGACGTGCACTATGTGCTG+CAGCACATAGGGCACGTCG ((((((((.((((((((((+)))))))))).)))))))) | 58.9 |
| CGACGTGCGCTATGTGCTG+CAGCACATAAGGCACGTCG ((((((((..(((((((((+)))))))))..)))))))) | 51.6 |
| CGACGTGCGCAATGTGCTG+CAGCACATAATGCACGTCG ((((((((...((((((((+))))))))...)))))))) | 50.5 |
| CGACGTGCGCTATGTGCTG+CAGCACATTCTGCACGTCG ((((((((...((((((((+))))))))...)))))))) | 48.6 |
| CGACGTGCGCCATGTGCTG+CAGCACATCATGCACGTCG ((((((((...((((((((+))))))))...)))))))) | 47.8 |
